{"source": "patent US7094407B2", "about": "“Fusion peptide containing human type-1 collagen derived peptide, preparation thereof, and skin anti-aging cosmetic composition comprising the same” (LG Household & Health Care Ltd., priority 2002, dated 2006)", "key": {"[1]": {"test_system": "human fibroblast", "assay": "Collagen synthesis effects test", "format": "cell-based", "conditions": "summary statement of test results", "procedure": "In order to measure the usefulness of the Tat-human Type-collagen DP prepared in Example 1 as a skin anti-aging agent, it was tested by comparing the preparation with ascorbic acid, which is known to be a material having an exceptional collagen synthesis effect.\nIn this test, a human fibroblast of the same number was cultured on a 24-well plate for 24 hours, and the sample as a concentration of 10^−4 to 10^−7 was applied thereto. After 2 hours, proline introduced tridium was applied thereto and a resulting mixture was cultured for 24 hours. Next, an amount of collagen newly-synthesized and newly-secreted from fibroblast was measured a cpm (count per minute) of proline introduced tridium using a medium, and an amount of csp (collagenous sensitive protein) was calculated. A comparative measurement of the collagen synthesis effect was then performed (David F. W. and Wilson Harvey, Analytical Biochemistry (1979); 96, 220 224, Atsushi Hatamochi, Masashi Ono, Hiroaki Ueki, and Masayoshi Namba., J. Invest Dermatol. (1991) 96, 473 477)."}, "[2]": {"test_system": "wrinkles on the outer corners of the eyes (crow's-feet)", "assay": "Anti-aging effects, O/W emulsion applied to crow's-feet of human subjects", "format": "in vivo", "conditions": "29 women in their thirties, 3 months, one time each day", "procedure": "In order to examine anti-aging effects of the Tat-human Type-collagen DP prepared in Example 1, an O/W emulsion comprising the compound of Chemical Formula 1 of the present invention and a control were each applied to human subjects. In particular, the O/W emulsion and control were coated on wrinkles on the outer corners of the eyes (i.e., crow's-feet) of 29 women in their thirties. Application was performed for 3 months, one time each day. Visual observation of anti-aging effects, if any, was performed and ranked according to a scale of four possibilities—no improvement, little improvement, medium improvement, and significant improvement."}, "[3]": {"assay": "Transdermal absorption (penetration into skin cells) test, Franz cell", "format": "in vitro ADME", "conditions": "nude mouse back skin 1.7 cm^2, 24 hours, HPLC and LC mass", "procedure": "Penetration of a compound, agent, etc. into skin cells is commonly referred to as transdermal absorption, and this will be the term used herein. The transdermal absorption test was conducted using the fusion peptide prepared in Example 1 (Reference: Lehman P A, Slattery J T, Franz T J. Percutaneous absorption of retinoids: Influence of vehicle, light exposure, and dose, J. Invest Dermatol., 91; 56–61. 1998).\nSpecifically, skin on the back of a female nude mouse 8 weeks of age was cut to a specific depth and to an area of 1.7 cm^2, and the fusion peptide was applied thereto. After 24 hours, the receptor solution and material absorbed in the skin in the back of the mouse were extracted with a transdermal absorption measuring instrument (Franz cell), and quantitatively analyzed using high performance liquid chromatography (HPLC) and liquid chromatography mass (LC mass) techniques. That is, these techniques were used to measure the amount of the compound of Chemical Formula 1 of the present invention that underwent transdermal absorption. […] Example 5: Allergy Test of a Tat-human Type-I collagen DP fusion peptide (LLNA)(SEQ ID NO: 10)"}, "[4]": {"test_system": "Balb/c mice", "assay": "Allergy test (LLNA, murine local lymph node assay)", "format": "in vivo, mouse", "conditions": "0.5% and 1.0% solutions in ethanol, 50 μl to both ears for 3 days, [3H]-methylthymidine; versus control", "procedure": "An experiment using ethanol as a carrier was selected for a safety test of the compound of Chemical Formula 1 when used as a cosmetic raw material [Reference: Kimber (1990): Identification of contact allergens using the murinelocal lymph node assay, J. Appl. Toxicol. 10(3); 173–180]. A control that uses cosmetic material for an anti-aging agent and the compound of Chemical Formula 1 were prepared in 0.5% and 1.0% solutions. 50 μl of the solution was applied to both ears of Balb/c mice for 3 days, and then the auricular lymph nodes were removed from the mice. The lymph nodes were pulverized to a monocell state, and radioisotope [3H]-methylthymidine was added thereto, after which a resulting material was cultured for 24 hours. Subsequently, amplification of cells (dpm, disintegrations per minute) was measured using a β-scintillation counter (Beckman LS 6000 TA, USA)."}, "[5]": {"test_system": "guinea pigs", "assay": "Skin irritation patch test", "format": "in vivo, guinea pig", "conditions": "O/W emulsion, 48 hours closed patch", "procedure": "In order to test skin irritation of the compound of Chemical Formula 1, a patch test using guinea pigs was conducted [Reference: Draize, J. H. (1959): Dermal toxicity. Assoc. Food and Drug Officials, US. Appraisal of the safety of chemicals in Food, Drugs, and Cosmetics., pp 46–59, Texas State Dept. of Health, Austin, Tex. Federal Register (1973): Method of testing primary irritant substances 38(187): pp 1500–1541]. The compound represented by Chemical Formula 1 was prepared in an O/W emulsion of various concentrations. Fur on the back of the guinea pigs where the sample was to be coated was removed, and the area was allowed to adapt to the surroundings for 24 hours in order to minimize skin irritation that may be caused by the removal of the fur.\nNext, a sample coating region was established (1.5 cm×1.5 cm), a sample and gauze were applied thereto, and the coated region was sealed with a thin paper of solid material in order to prevent loss, after which the sealing material was held firmly in place with an elastic bandage. The guinea pigs were maintained in this state for 48 hours then all the applied materials were removed. At two different time periods of 2 hours and 24 hours after removal of the closed patch (50 hours and 72 hours after patch application), the degree of irritation was determined and indicated by an irritation index (P11: primary cutaneous irritation index) and by an irritation degree scale."}, "[6]": {"test_system": "V79-4 cells", "assay": "Cytotoxicity MTT test", "format": "cell-based, Chinese hamster", "procedure": "In order to identify the safety of the compound of Chemical Formula 1 when used as a cosmetic raw material, V79–4 cells (Chinese hamster, continuous cell line of lung tissue fibroblast) were cultured and an MTT test was conducted to test cytotoxicity for the compound [Reference: Mossaman T. (1983). Rapid colorimetric assay for cellular growth & survival: application to proliferation & cytotoxicity assays. Journal of Immunological Methods 65, 55–63)."}}, "data": [{"sequence": "KKKKKKKKKKTKS (Tat-human Type-I collagen DP fusion peptide)", "values": [{"measurement": "synthesis of collagen and hyaluronic acid", "setting": "[1]", "result": "superior synthesis of collagen and hyaluronic acid"}, {"measurement": "anti-aging effects on crow's-feet (visual observation)", "setting": "[2]", "result": "exhibits anti-aging effects on crow's-feet"}, {"measurement": "transdermal absorption capability", "setting": "[3]", "result": "superior transdermal absorption capability"}, {"measurement": "possibility of allergy induction", "setting": "[4]", "result": "lower possibility of allergy induction than the control"}, {"measurement": "Irritation Degree", "setting": "[5]; Concentration 0.01 %", "result": "Minute irritation"}, {"measurement": "Irritation Index (PII)", "setting": "[5]; Concentration 0.01 %", "result": 0.52}, {"measurement": "Irritation Degree", "setting": "[5]; Concentration 0.1 %", "result": "Minute irritation"}, {"measurement": "Irritation Index (PII)", "setting": "[5]; Concentration 0.1 %", "result": 0.53}, {"measurement": "Irritation Degree", "setting": "[5]; Concentration 0.5 %", "result": "Minute irritation"}, {"measurement": "Irritation Index (PII)", "setting": "[5]; Concentration 0.5 %", "result": 0.53}, {"measurement": "cytotoxicity (MTT)", "setting": "[6]; concentration of 0.01 or less", "result": "negligent level of toxicity"}, {"measurement": "cytotoxicity (MTT)", "setting": "[6]; concentration of 0.1 (%, w.v) or more", "result": "very weak toxicity"}]}]}
